Data taken from publication PMC6535546, “Novel Carbapenemases FLC-1 and IMI-2 Encoded by an Enterobacter cloacae Complex Isolated from Food Products” (Antimicrobial Agents and Chemotherapy, 2019).

What was measured:
[1] = molecular target: T1, FLC-1 (FRI-like carbapenemase-1) (Enterobacter cloacae, UniProt A0A2I5JVQ1); experiment: nitrocefin hydrolysis inhibition; type: biochemical
T1 construct: gene bla; plasmid p3442-FLC-1 gene cloned in pBAD-FLC, expressed in E. coli LMG194; unpurified soluble (cytoplasmic) fraction; about 33 kDa
Experimental: nitrocefin hydrolysis inhibition on FLC-1 (FRI-like carbapenemase-1) | the inhibition of FLC-1 enzymatic activity by clavulanic acid was tested

[2] = tested on: CC1(C)S[C@@H]2[C@H](NC(=O)[C@H](N)c3ccccc3)C(=O)N2[C@H]1C(=O)O; experiment: cells, lysate or membranes; type: biochemical, Enterobacter cloacae; settings: PBS, 0.01% Triton X-100, pH 7.4, 23°C, cytoplasmic fraction of E. coli LMG194 producing FLC-1
[3] = tested on: CO/N=C(\C(=O)N[C@@H]1C(=O)N2C(C(=O)O)=C(COC(C)=O)CS[C@H]12)c1csc(N)n1; experiment: cells, lysate or membranes; type: biochemical, Enterobacter cloacae; settings: PBS, 0.01% Triton X-100, pH 7.4, 23°C, cytoplasmic fraction of E. coli LMG194 producing FLC-1
[4] = tested on: C[C@@H](O)[C@H]1C(=O)N2C(C(=O)O)=C(SCCN=CN)C[C@H]12; experiment: cells, lysate or membranes; type: biochemical, Enterobacter cloacae; settings: PBS, 0.01% Triton X-100, pH 7.4, 23°C, cytoplasmic fraction of E. coli LMG194 producing FLC-1
[5] = tested on: C[C@@H](O)[C@H]1C(=O)N2C(C(=O)O)=C(S[C@@H]3CN[C@H](C(=O)N(C)C)C3)[C@H](C)[C@H]12; experiment: cells, lysate or membranes; type: biochemical, Enterobacter cloacae; settings: PBS, 0.01% Triton X-100, pH 7.4, 23°C, cytoplasmic fraction of E. coli LMG194 producing FLC-1
[6] = tested on: C[C@@H](O)[C@H]1C(=O)N2C(C(=O)O)=C(S[C@@H]3CN[C@H](C(=O)Nc4cccc(C(=O)O)c4)C3)[C@H](C)[C@H]12; experiment: cells, lysate or membranes; type: biochemical, Enterobacter cloacae; settings: PBS, 0.01% Triton X-100, pH 7.4, 23°C, cytoplasmic fraction of E. coli LMG194 producing FLC-1

T1 sequence (A0A2I5JVQ1 entry or part of it): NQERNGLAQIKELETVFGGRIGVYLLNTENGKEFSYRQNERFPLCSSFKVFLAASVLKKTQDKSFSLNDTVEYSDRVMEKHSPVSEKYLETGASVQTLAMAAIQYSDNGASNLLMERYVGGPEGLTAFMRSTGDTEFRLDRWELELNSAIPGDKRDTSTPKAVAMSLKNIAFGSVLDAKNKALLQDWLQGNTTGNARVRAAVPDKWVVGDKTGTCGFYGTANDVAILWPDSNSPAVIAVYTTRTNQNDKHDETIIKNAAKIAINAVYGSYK

Compound `O=C(O)[C@H]1/C(=C/CO)O[C@@H]2CC(=O)N21` [clavulanic acid] has an IC50 [1] of 1970 ± 90 nM.
With “FLC-1 (FRI-like carbapenemase-1) (Enterobacter cloacae)” the Km [2] was 1,649 ± 174.2 μM, the Km [3] was 377.1 ± 110.6 µM and the Km [4] was 177.2 ± 12.5 µM. The Km [5] was 32.4 ± 9.3 µM and the Km [6] was 29.6 ± 11.7 µM.
